Experiments:
human IFN-beta (human) = human IFN-beta (human) (UniProt P01574); assay: cell-based or functional assay
[1] = target: recombinant human IFN-alpha (human); assay: cell-based or functional assay

Sequence of UniProt P01574 (P01574 22-187 limits assumed): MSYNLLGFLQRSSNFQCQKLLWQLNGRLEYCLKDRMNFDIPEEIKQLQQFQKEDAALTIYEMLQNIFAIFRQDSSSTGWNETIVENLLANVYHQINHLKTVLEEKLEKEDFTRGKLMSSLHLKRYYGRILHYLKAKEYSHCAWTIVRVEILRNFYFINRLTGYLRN

For “Vaccinia virus B19 IFN-binding protein (full length protein) (from UniProt P25213 20-351)”, the percent neutralization of IFN at a 1:400 dilution of the medium (human IFN-beta (human)) was greater than 50% and the percent neutralization of IFN at a 1:400 dilution of the medium [1] was greater than 80%.

Reference: patent US20160089418A1
